T1: FcRL4, overexpressed on 3T3 cells (UniProt Q96PJ5 20-515, limits assumed)
T1 construct: whole, on cells
T1 sequence (looked up): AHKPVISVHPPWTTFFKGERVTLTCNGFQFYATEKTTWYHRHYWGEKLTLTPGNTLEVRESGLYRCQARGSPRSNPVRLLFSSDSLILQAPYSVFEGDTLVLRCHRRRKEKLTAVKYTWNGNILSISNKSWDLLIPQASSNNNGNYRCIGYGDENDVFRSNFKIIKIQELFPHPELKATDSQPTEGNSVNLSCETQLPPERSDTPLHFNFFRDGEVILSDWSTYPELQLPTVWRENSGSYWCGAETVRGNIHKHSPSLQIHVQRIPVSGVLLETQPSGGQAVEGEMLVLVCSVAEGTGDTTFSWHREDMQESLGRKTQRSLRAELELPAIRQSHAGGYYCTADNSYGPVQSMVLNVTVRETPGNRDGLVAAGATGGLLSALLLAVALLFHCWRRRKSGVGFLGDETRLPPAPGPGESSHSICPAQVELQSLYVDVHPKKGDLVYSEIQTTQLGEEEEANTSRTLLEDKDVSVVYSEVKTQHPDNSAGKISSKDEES

T2: FcRL3, overexpressed on 3T3 cells (UniProt Q96P31 18-734, limits assumed)
T2 construct: whole, on cells
T2 sequence (looked up): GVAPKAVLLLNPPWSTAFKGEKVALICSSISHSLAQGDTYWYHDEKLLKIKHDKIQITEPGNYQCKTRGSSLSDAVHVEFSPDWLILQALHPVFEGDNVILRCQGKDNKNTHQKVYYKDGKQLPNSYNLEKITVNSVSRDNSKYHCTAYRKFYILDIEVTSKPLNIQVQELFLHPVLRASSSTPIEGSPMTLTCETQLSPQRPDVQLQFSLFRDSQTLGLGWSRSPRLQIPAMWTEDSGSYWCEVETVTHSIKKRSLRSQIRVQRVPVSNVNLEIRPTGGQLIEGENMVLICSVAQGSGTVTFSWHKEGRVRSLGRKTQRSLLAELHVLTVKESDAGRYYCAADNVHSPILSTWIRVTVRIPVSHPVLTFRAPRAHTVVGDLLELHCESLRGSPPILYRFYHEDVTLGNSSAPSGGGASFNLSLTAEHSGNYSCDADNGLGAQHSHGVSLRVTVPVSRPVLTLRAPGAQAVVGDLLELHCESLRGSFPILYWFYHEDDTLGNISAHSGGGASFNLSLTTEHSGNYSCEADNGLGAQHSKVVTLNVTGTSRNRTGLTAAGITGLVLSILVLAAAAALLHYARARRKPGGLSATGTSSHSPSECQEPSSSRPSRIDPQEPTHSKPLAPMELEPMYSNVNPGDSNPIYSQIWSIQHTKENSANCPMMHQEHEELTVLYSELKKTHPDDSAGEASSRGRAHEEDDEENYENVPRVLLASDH


How the values were obtained:
[1] = target: T1, FcRL4, overexpressed on 3T3 cells; assay: phage clone on 3T3-FcRL4 cells
[2] = target: T2, FcRL3, overexpressed on 3T3 cells; assay: phage clone on 3T3-FcRL3 cells

| Binder | binding result [1] | binding result [2] |
| --- | --- | --- |
| ET200-105 (scFv, screened as phage clone; entry is VL-linker-VH-His tag-HA tag) scFv: SYVLTQPPSVSVSPGQTASITCSGDRLTNKYVSWYQQKPGQSPVLVIYEDAKRPSGIPARFSGSNSGNTATLTISGTQAMDESEYYCQAWDSSVVVFGGGTKLTVLGSRGGGGSGGGGSGGGGSLEMAEVQLVESGGGLVQPGRSLRLSCAASGFTFDDYAMHWVRQAPGKGLEWVSGISWNSGSIGYADSVKGRFTISRDNAKNSLYLQMNSLRDEDTALYYCAKDRGGGVIVKDAFDIWGQGTMVTVSSTSGQAGQHHHHHHGAYPYDVPDYAS | no binding | no binding |
| ET200-106 (scFv, screened as phage clone; entry is VL-linker-VH-His tag-HA tag) scFv: SYELTQPPAASGTPGQRVTISCSGGVSNIGSGALNWYQQLPGTAPKLLIYSYNQRPSGVSDRFSGSRSATSASLAISGLQSEDEADYYCATWDDSVNGWVFGGGTKLTVLGSRGGGGSGGGGSGGGGSLEMAEVQLVESGAEVKKPGDSVKVSCKPSGYNFLNYGINWVRQAPGQGLEWMGWISTYTGNTNYAQKLQGRVTFTTDTSTSTAYMEMRSLRSDDTAVYYCARQQGGGWYDVWGQGTLVTVSSTSGQAGQHHHHHHGAYPYDVPDYAS | no binding | no binding |
| ET200-107 (scFv, screened as phage clone; entry is VL-linker-VH-His tag-HA tag) scFv: QSVVTQPPSVSAAPGEKVTISCSGSNFNVGNNDVSWYQQLPGAAPKLLIYDNNKRPSGIPDRFSGSKSGTSATLDITGLHSDDEADYYCGTWDSSLNTGGVFGTGTKVTVLGSRGGGGSGGGGSGGGGSLEMAEVQLVQSGAEVKKPGASVKVSCKASGYTFTSYTISWVRQAPGQGLEWMGWISTYNGLTNYAQNLQGRVTMTTDTFTTTAYMELRSLRSDDTAVYYCVREGSPDYGDFASFDYWGQGTLVTVSSTSGQAGQHHHHHHGAYPYDVPDYAS | no binding | no binding |
| ET200-108 (scFv, screened as phage clone; entry is VL-linker-VH-His tag-HA tag) scFv: QSVLTQPPSVSAPPGQKVTISCSGSSSNIGNNYVSWYQQFPGTAPKLLIYDNNKRPSGISDRFSGSKSGTSATLGIAGLQTGDEADYYCGTWDTSLSGFYVFGSGTKVTVLGSRGGGGSGGGGSGGGGSLEMAEVQLVQSGAEVKKPGASVKVSCKASGYTFTSYTISWVRQAPGQGLEWMGWISTYNGLTNYAQNLQGRVTMTTDTFTTTAYMELRSLRSDDTAVYYCVREGSPDYGDFASFDYWGQGTLVTVSSTSGQAGQHHHHHHGAYPYDVPDYAS | no binding | no binding |
| ET200-007 (scFv, screened as phage clone; entry is VL-linker-VH-His tag-HA tag) scFv: SYVLTQPLSVSVAPGKTARITCGGNNIGSKTVHWYQQKPGQAPVLVIYYDSDRPSGIPERFSGSNSGNTATLTISRVEAGDEADYYCQVWDSSSDHRVFGGGTKLTVLGSRGGGGSGGGGSGGGGSLEMAQVQLQESGPGLVKPSETLSLTCNVSGYSISSGYFWGWIRQPPGKGLEWIGSIYHSRSTYYNPSLKSRVTISVDTSKNQFSLKLNSVTAADTAVYYCARGYGYFDYWGQGTLVTVSSTSGQAGQHHHHHHGAYPYDVPDYAS | no binding | no binding |
| ET200-109 (scFv, screened as phage clone; entry is VL-linker-VH-His tag-HA tag) scFv: LPVLTQPPSASATPGQRVTISCSGTTSNIGSNTVHWYQQLPGTAPKLLIYNNNQRPSGVPDRFSGSKSGTSASLAISGLRSEDEATYSCATWDDSLSGVVFGGGTKLTVLGSRGGGGSGGGGSGGGGSLEMAEVQLVQSGAEVKKPGSSVKVSCKASGGTFSSYAISWVRQAPGQGLEWMGGIIPIFGTANYAQKFQGRVTITADESTSTAYMELSSLRSEDTAVYYCARDPAYGDYEYDAFDIWGQGTMVTVSSTSGQAGQHHHHHHGAYPYDVPDYAS | no binding | no binding |
| ET200-110 (scFv, screened as phage clone; entry is VL-linker-VH-His tag-HA tag) scFv: QSVLTQPPSASGTPGQRVTISCSGSSSNIGTNGVNWFQQFPGTAPKLLIYTNDQRPSGVPDRFSGSKSGTSASLAISGLQSADEADYYCAVWDHSLNGPVFGGGTKLTVLGSRGGGGSGGGGSGGGGSLEMAQVQLVQSGAEVKKPGSSVKVSCKASGGTFSSYAISWVRQAPGQGLEWMGGIIPIFGTANYAQKFQGRVTITADESTSTAYMELSSLRSEDTAVYYCARGAGFDAFDIWGQGTMVTVSSTSGQAGQHHHHHHGAYPYDVPDYAS | no binding | no binding |
| ET200-112 (scFv, screened as phage clone; entry is VL-linker-VH-His tag-HA tag) scFv: QAVLTQPPSASGTPGQRVTISCSGSSSNIGSNTVNWYQQLPGTAPKLLMYSNDQRPSGVPDRFSGSKSGTSASLAISGLQSEDEADYYCAAWDDSLNGYVFAAGTQLTVLSSRGGGGSGGGGSGGGGSLEMAQVQLQQWGAGLLKPSETLSLTCAVYGGSFSGYYWSWIRQPPGKGLEWIGEINHSGSTNYNPSLKSRVTISVDTSKNQFSLKLSSVTAADTAVYYCAREGLDAFDIWGQGTMVTVSSTSGQAGQHHHHHHGAYPYDVPDYAS | no binding | no binding |
| ET200-113 (scFv, screened as phage clone; entry is VL-linker-VH-His tag-HA tag) scFv: QSVVTQPPSVSAAPGQKVTISCSGSSSNIGNNYVSWYQQLPGTAPKLLIYDNNKRPSGIPDRFSGSKSGTSATLGITGLQTGDEADYYCGTWDSSLSAAYVFGTGTKVTVLGSRGGGGSGGGGSGGGGSLEMAQVQLVQSGAEVKKPGASVKVSCKASGYSFTSYTISWVRQAPGQGLEWMGWVSTYNGLRNYAQNLQGRVTMTTDTLTTTAYMELRSLRSDDTAVYYCVREGSPDYGDFAAFDYWGQGTLVTVSSTSGQAGQHHHHHHGAYPYDVPDYAS | no binding | no binding |
| ET200-115 (scFv, screened as phage clone; entry is VL-linker-VH-His tag-HA tag) scFv: QSVLTQPPSVSGAPGQRVTISCTGSSSNIGARYDVHWYQQLPGTAPRLLISANYDRPSGVPDRFSGSKSGTSASLAITGLQAEDEADYYCQSYDSSVSAWVFGGGTKVTVLGSRGGGGSGGGGSGGGGSLEMAEVQLVQSGAEVKEPGASVRISCQASGYNFISYYMHWVRQAPGQGLEWMGTINPGSGETDYSQKLQGRVTMTRDPSTGTFDMGLSSLTSGDTAVYYCATGLIRGASDAFNIWGRGTMVTVSSTSGQAGQHHHHHHGAYPYDVPDYAS | no binding | no binding |
| ET200-116 (scFv, screened as phage clone; entry is VL-linker-VH-His tag-HA tag) scFv: QPVLTQPPSVSVSPGQTAAIPCSGDKLGDKFASWYQQKPGQSPVLVIYQDTKRPSGIPERFSGSNSGNTATLTISGTQAMDEADYYCQTWASGIVVFGGGTKLTVLGSRGGGGSGGGGSGGGGSLEMAQVQLQQSGPGLVKPSQTLSLTCAISGDSVSSNSAAWNWIRQSPSRGLEWLGRTYYRSKWYNDYAVSVKSRITINPDTSKNQFSLQLNSVTPEDTAVYYCARERSGWKGFDYWGQGTLVTVSSTSGQAGQHHHHHHGAYPYDVPDYAS | no binding | no binding |
| ET200-118 (scFv, screened as phage clone; entry is VL-linker-VH-His tag-HA tag) scFv: QAVLTQPASVSGSPGQSITISCTGTSSDVGGYNYVSWYQQHPGKAPKLMIYEVSNRPSGVSNRFSGSKSGNTASLTISGLQAEDEADYYCSSYTSSSTPYVFGAGTKVTVLGSRGGGGSGGGGSGGGGSLEMAEVQLVESGGGLVQPGRSLRLSCAASGFTFDDYAMHWVRQAPGKGLEWVSGISWNSGSIGYADSVKGRFTISRDNAKNSLYLQMNSLRAEDTALYYCAKARWTAVASDHHFDYWGQGTLVTVSSTSGQAGQHHHHHHGAYPYDVPDYAS | no binding | no binding |
| ET200-008 (scFv, screened as phage clone; entry is VL-linker-VH-His tag-HA tag) scFv: QSALTQPASVSGSPGQSITISCTGTSSDVGGYNYVSWYQQHPGKAPKLMIYDVSNRPSGVSNRFSGSKSGNTASLTISGLQAEDEADYYCSSYTSSSTSKVFGGGTKLTVLGSRGGGGSGGGGSGGGGSLEMAEVQLVESGGGVVRPGGSLRLSCAASGFTFGDYGMSWVRQAPGKGLEWVSGINWNGGSTGYADSVKGRFTISRDNAKNSLYLQMNSLRAEDTAVYYCARSKYNFHVYYDYWGQGTLVTVSSTSGQAGQHHHHHHGAYPYDVPDYAS | no binding | no binding |
| ET200-121 (scFv, screened as phage clone; entry is VL-linker-VH-His tag-HA tag) scFv: QSVLTQPPSVSGAPGQRVTVSCTGSRSNIGAGYDVHWYQQLPGTAPKLLIYGNSNRPPGVPDRFSGSKSGTSASLVITGLQAEDAADYYCQSYDNTVRESPYVFGTGTKVTVLGSRGGGGSGGGGSGGGGSLEMAEVQLVQSGAEVKKPGASVKVSCKVSGYTLTELSMHWVRQAPGKGLEWMGGFDPEDGETIYAQKFQGRVTMTEDTSTDTAYMELSSLRSEDTAVYYCATESNLVSRHYYYYGMDVWGQGTTVTVSSTSGQAGQHHHHHHGAYPYDVPDYAS | no binding | no binding |

— US20210388081A1 (Memorial Sloan Kettering, published 2021)
